Data taken from article PMC9482650, “Quantitative fragmentomics allow affinity mapping of interactomes” (Nature Communications, 2022).
Numbering of substitutions follows the chain as printed.

B1: KCNA1, Q09470 (peptide)
chain: VNKSKLLTDV
B2: ASNSD1, Q9NWL6 (peptide)
chain: NLSIEKETKL

Biological target: T1, PDZD2_2, O15018
T1 sequence (O15018 329-429, limits assumed, looked up): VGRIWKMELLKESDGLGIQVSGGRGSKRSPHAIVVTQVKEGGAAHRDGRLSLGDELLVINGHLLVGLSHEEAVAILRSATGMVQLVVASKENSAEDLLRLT
Assay: holdup assay
Set-up: key: below the threshold = too weak to quantify, mostly under pKd 3.1 to 4
Settings: plain residues with an end cap or a label only (N-terminal biotin on a linker: ado-ado)

Binder	pKd
B1	4.07
B2	3.83

Biological target: T2, GRIP1_4, Q9Y3R0
T2 sequence (Q9Y3R0 467-571, limits assumed, looked up): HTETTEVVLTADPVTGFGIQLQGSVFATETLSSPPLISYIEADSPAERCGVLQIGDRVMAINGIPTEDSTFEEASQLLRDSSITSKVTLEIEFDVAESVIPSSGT
Assay: holdup assay
Set-up: key: below the threshold = too weak to quantify, mostly under pKd 3.1 to 4
Settings: plain residues with an end cap or a label only (N-terminal biotin on a linker: ado-ado)

Binder	pKd
B1	below the threshold
B2	below the threshold

Biological target: LNX1_3, Q8TBB1
Assay: holdup assay
Set-up: key: below the threshold = too weak to quantify, mostly under pKd 3.1 to 4
Settings: plain residues with an end cap or a label only (N-terminal biotin on a linker: ado-ado)

LNX1_3, Q8TBB1, sequence (Q8TBB1 500-596): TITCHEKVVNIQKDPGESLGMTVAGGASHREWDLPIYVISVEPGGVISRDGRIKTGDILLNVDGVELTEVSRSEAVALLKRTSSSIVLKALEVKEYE

Binder	pKd
B1	below the threshold
B2	below the threshold

Biological target: LAP2, Q96RT1
Assay: holdup assay
Set-up: key: below the threshold = too weak to quantify, mostly under pKd 3.1 to 4
Settings: plain residues with an end cap or a label only (N-terminal biotin on a linker: ado-ado)

LAP2, Q96RT1, sequence (Q96RT1 other isoform, or with tags, fused parts or gaps): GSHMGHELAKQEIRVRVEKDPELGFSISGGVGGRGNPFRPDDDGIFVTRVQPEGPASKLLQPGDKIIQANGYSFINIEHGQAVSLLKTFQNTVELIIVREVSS

Binder	pKd
B1	below the threshold
B2	3.52

Biological target: DLG4_3, P78352
Assay: holdup assay
Set-up: key: below the threshold = too weak to quantify, mostly under pKd 3.1 to 4
Settings: plain residues with an end cap or a label only (N-terminal biotin on a linker: ado-ado)

DLG4_3, P78352, sequence (P78352 306-403): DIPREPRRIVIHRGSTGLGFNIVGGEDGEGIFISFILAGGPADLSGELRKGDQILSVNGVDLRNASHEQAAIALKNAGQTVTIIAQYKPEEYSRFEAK

Binder	pKd
B1	3.53
B2	below the threshold

Biological target: T3, HTRA4, P83105
T3 sequence (P83105 378-476, limits assumed, looked up): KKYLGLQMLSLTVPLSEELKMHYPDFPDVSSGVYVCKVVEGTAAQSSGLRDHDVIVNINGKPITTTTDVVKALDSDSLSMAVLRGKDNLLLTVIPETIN
Assay: holdup assay
Set-up: key: below the threshold = too weak to quantify, mostly under pKd 3.1 to 4
Settings: plain residues with an end cap or a label only (N-terminal biotin on a linker: ado-ado)

Binder	pKd
B1	below the threshold
B2	below the threshold

Biological target: T4, PDZRN3_1, Q9UPQ7
T4 sequence (Q9UPQ7 244-349, limits assumed, looked up): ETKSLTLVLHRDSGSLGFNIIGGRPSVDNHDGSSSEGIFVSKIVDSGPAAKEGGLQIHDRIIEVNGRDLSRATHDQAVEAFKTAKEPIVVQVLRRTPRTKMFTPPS
Assay: holdup assay
Set-up: key: below the threshold = too weak to quantify, mostly under pKd 3.1 to 4
Settings: plain residues with an end cap or a label only (N-terminal biotin on a linker: ado-ado)

Binder	pKd
B1	below the threshold
B2	4.67

Biological target: T5, ARHGAP21, Q5T5U3
T5 sequence (Q5T5U3 45-169, limits assumed, looked up): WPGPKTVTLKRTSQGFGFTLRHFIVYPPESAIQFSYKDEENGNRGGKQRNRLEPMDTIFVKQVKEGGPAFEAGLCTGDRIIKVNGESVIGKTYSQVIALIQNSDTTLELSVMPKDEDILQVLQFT
Assay: holdup assay
Set-up: key: below the threshold = too weak to quantify, mostly under pKd 3.1 to 4
Settings: plain residues with an end cap or a label only (N-terminal biotin on a linker: ado-ado)

Binder	pKd
B1	below the threshold
B2	below the threshold

Biological target: T6, SNTG2, Q9NY99
T6 sequence (Q9NY99 68-166, limits assumed, looked up): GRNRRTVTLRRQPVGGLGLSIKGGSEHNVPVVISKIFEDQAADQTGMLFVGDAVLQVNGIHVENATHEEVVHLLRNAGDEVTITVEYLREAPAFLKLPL
Assay: holdup assay
Set-up: key: below the threshold = too weak to quantify, mostly under pKd 3.1 to 4
Settings: plain residues with an end cap or a label only (N-terminal biotin on a linker: ado-ado)

Binder	pKd
B1	below the threshold
B2	4.95

Biological target: SCRIB_2, Q14160
Assay: holdup assay
Set-up: key: below the threshold = too weak to quantify, mostly under pKd 3.1 to 4
Settings: plain residues with an end cap or a label only (N-terminal biotin on a linker: ado-ado)

SCRIB_2, Q14160, sequence (Q14160 857-960): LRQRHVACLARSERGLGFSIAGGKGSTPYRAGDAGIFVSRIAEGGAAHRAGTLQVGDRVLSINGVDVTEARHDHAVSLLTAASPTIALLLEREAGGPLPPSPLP

Binder	pKd
B1	below the threshold
B2	below the threshold

Biological target: T7, LIN7C, Q9NUP9
T7 sequence (Q9NUP9 88-185, limits assumed, looked up): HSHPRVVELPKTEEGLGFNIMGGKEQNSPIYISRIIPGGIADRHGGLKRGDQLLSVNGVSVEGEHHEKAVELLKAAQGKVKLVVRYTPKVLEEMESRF
Assay: holdup assay
Set-up: key: below the threshold = too weak to quantify, mostly under pKd 3.1 to 4
Settings: plain residues with an end cap or a label only (N-terminal biotin on a linker: ado-ado)

Binder	pKd
B1	below the threshold
B2	4.2

Biological target: FRMPD2_1, Q68DX3
Assay: holdup assay
Set-up: key: below the threshold = too weak to quantify, mostly under pKd 3.1 to 4
Settings: plain residues with an end cap or a label only (N-terminal biotin on a linker: ado-ado)

FRMPD2_1, Q68DX3, sequence (Q68DX3 770-861): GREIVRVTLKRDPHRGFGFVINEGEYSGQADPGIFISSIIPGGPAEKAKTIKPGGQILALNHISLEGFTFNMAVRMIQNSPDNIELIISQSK

Binder	pKd
B1	below the threshold
B2	below the threshold

Biological target: T8, LIN7B, Q9HAP6
T8 sequence (Q9HAP6 88-185, limits assumed, looked up): T7 sequence (Q9NUP9 88-185, limits assumed, looked up) with S2A, E13D, I35V, I40V, H65Q, K79S, K89R, S96A
Assay: holdup assay
Set-up: key: below the threshold = too weak to quantify, mostly under pKd 3.1 to 4
Settings: plain residues with an end cap or a label only (N-terminal biotin on a linker: ado-ado)

Binder	pKd
B1	3.78
B2	4.47

Biological target: TJP1_3, Q07157
Assay: holdup assay
Set-up: key: below the threshold = too weak to quantify, mostly under pKd 3.1 to 4
Settings: plain residues with an end cap or a label only (N-terminal biotin on a linker: ado-ado)

TJP1_3, Q07157, sequence (Q07157 416-512): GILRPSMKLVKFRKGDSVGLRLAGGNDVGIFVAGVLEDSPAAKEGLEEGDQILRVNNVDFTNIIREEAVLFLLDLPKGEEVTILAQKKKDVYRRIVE

Binder	pKd
B1	below the threshold
B2	below the threshold

Biological target: IL16_4, Q14005
Assay: holdup assay
Set-up: key: below the threshold = too weak to quantify, mostly under pKd 3.1 to 4
Settings: plain residues with an end cap or a label only (N-terminal biotin on a linker: ado-ado)

IL16_4, Q14005, sequence (Q14005 1229-1329): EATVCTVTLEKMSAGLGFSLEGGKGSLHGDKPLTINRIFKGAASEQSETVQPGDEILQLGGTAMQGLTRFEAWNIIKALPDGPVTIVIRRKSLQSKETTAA

Binder	pKd
B1	below the threshold
B2	below the threshold

Biological target: T9, APBA2_2, Q99767
T9 sequence (Q99767 654-744, limits assumed, looked up): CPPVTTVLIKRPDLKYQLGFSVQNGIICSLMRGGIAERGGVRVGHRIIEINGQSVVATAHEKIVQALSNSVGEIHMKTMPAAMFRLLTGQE
Assay: holdup assay
Set-up: key: below the threshold = too weak to quantify, mostly under pKd 3.1 to 4
Settings: plain residues with an end cap or a label only (N-terminal biotin on a linker: ado-ado)

Binder	pKd
B1	below the threshold
B2	below the threshold

Biological target: DLG1_3, Q12959
Assay: holdup assay
Set-up: key: below the threshold = too weak to quantify, mostly under pKd 3.1 to 4
Settings: plain residues with an end cap or a label only (N-terminal biotin on a linker: ado-ado)

DLG1_3, Q12959, sequence (Q12959 457-571): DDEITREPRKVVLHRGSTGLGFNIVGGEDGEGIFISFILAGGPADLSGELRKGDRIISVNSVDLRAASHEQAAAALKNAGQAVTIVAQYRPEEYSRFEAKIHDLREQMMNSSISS

Binder	pKd
B1	below the threshold
B2	3.53

Biological target: T10, NHERF3_4, Q5T2W1
T10 sequence (Q5T2W1 373-468, limits assumed, looked up): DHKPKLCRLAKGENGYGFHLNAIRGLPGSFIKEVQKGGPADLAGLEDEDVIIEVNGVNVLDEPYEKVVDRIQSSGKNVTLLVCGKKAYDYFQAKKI
Assay: holdup assay
Set-up: key: below the threshold = too weak to quantify, mostly under pKd 3.1 to 4
Settings: plain residues with an end cap or a label only (N-terminal biotin on a linker: ado-ado)

Binder	pKd
B1	below the threshold
B2	4.13

Biological target: MAGI2_4, Q86UL8
Assay: holdup assay
Set-up: key: below the threshold = too weak to quantify, mostly under pKd 3.1 to 4
Settings: plain residues with an end cap or a label only (N-terminal biotin on a linker: ado-ado)

MAGI2_4, Q86UL8, sequence (Q86UL8 772-865): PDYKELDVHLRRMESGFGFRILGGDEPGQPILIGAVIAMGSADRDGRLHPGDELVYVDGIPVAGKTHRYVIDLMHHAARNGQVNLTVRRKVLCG

Binder	pKd
B1	3.79
B2	below the threshold

Biological target: T11, SNTB1, Q13884
T11 sequence (Q13884 107-205, limits assumed, looked up): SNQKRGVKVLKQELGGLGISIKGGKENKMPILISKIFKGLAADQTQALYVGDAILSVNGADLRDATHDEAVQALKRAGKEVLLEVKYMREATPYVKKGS
Assay: holdup assay
Set-up: key: below the threshold = too weak to quantify, mostly under pKd 3.1 to 4
Settings: plain residues with an end cap or a label only (N-terminal biotin on a linker: ado-ado)

Binder	pKd
B1	below the threshold
B2	5.22

Biological target: Inadl_6, Q8NI35
Assay: holdup assay
Set-up: key: below the threshold = too weak to quantify, mostly under pKd 3.1 to 4
Settings: plain residues with an end cap or a label only (N-terminal biotin on a linker: ado-ado)

Inadl_6, Q8NI35, sequence (Q8NI35 1058-1167): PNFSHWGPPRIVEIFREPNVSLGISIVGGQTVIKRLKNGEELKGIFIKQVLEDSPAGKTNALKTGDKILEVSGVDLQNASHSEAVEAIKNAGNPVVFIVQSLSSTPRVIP

Binder	pKd
B1	below the threshold
B2	4.22

Biological target: DLG1_2, Q12959
Assay: holdup assay
Set-up: key: below the threshold = too weak to quantify, mostly under pKd 3.1 to 4
Settings: plain residues with an end cap or a label only (N-terminal biotin on a linker: ado-ado)

DLG1_2, Q12959, sequence (Q12959 314-412): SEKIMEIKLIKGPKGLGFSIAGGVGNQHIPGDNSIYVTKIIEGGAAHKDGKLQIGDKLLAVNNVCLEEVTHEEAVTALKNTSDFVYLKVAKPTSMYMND

Binder	pKd
B1	4.55
B2	3.93

Biological target: LNX1_2, Q8TBB1
Assay: holdup assay
Set-up: key: below the threshold = too weak to quantify, mostly under pKd 3.1 to 4
Settings: plain residues with an end cap or a label only (N-terminal biotin on a linker: ado-ado)

LNX1_2, Q8TBB1, sequence (Q8TBB1 371-470): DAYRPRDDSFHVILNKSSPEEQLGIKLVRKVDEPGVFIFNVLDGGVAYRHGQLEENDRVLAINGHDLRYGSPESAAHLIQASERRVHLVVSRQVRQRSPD

Binder	pKd
B1	below the threshold
B2	below the threshold

Biological target: T12, LNX2_3, Q8N448
T12 sequence (Q8N448 463-564, limits assumed, looked up): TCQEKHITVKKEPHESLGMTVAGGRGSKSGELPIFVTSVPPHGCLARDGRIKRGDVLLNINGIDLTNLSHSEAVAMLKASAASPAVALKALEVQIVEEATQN
Assay: holdup assay
Set-up: key: below the threshold = too weak to quantify, mostly under pKd 3.1 to 4
Settings: plain residues with an end cap or a label only (N-terminal biotin on a linker: ado-ado)

Binder	pKd
B1	below the threshold
B2	below the threshold

Biological target: Inadl_3, Q8NI35
Assay: holdup assay
Set-up: key: below the threshold = too weak to quantify, mostly under pKd 3.1 to 4
Settings: plain residues with an end cap or a label only (N-terminal biotin on a linker: ado-ado)

Inadl_3, Q8NI35, sequence (Q8NI35 359-469): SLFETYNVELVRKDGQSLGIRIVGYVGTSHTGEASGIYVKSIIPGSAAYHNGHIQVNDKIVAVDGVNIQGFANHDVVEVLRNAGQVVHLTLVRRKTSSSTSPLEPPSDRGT

Binder	pKd
B1	below the threshold
B2	below the threshold
